From US12365732 (23ANDME, dated 2025) come the findings set out here.

As a reminder, the EC50 is the concentration at which the effect is half-maximal.

The target in experiment [1] is T1, hu-CD96 isoform 2 on CHO cells (human, UniProt P40200 22-585).
T1 construct: also called CHO-CD96 (isoform 2); CD96-CHOs
T1 sequence: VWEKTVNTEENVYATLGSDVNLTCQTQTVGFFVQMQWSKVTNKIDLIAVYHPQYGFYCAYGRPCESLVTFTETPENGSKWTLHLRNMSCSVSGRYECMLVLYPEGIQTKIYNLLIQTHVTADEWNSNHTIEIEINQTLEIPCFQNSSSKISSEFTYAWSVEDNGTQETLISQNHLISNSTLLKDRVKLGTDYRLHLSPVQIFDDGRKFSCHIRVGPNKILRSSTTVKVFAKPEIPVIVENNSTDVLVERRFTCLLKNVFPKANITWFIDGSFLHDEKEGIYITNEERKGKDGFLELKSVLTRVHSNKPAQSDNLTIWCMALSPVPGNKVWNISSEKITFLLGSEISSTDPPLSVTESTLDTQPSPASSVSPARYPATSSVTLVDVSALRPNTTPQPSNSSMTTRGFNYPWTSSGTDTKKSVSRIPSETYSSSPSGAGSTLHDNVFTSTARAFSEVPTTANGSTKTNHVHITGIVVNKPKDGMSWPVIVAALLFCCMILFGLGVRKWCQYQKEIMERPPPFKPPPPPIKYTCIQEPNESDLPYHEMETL
Kind of experiment: FACS, Ab 2 nM. The procedure:
(§1) Isoform 1 of hu-CD96 (Origene, catalog #RC213845) was transiently expressed in HEK293T cells following standard lipofectamine or Fugene transfection protocol. […] Cells were washed, and binding was detected by incubation with anti-mouse IgG-FITC (Biolegend, catalog #406001) for 20 minutes at 4° C. Cell binding was analyzed by flow cytometry with a CytoFLEX (Beckman Coulter). Binding curves were calculated as a percentage of cells positive for bound antibody.
(§2) Isoform 2 of hu-CD96 (DNA construct: Origene, catalog #RC221005) was expressed on a single-cell-clone-derived CHO stable cell line. Binding of the anti-CD96 antibodies to the CHO cells were determined as described above with isoform 1 of hu-CD96.
(In general: Flow cytometry measures light scatter and fluorescence of single cells or particles in a stream.)

Experiment [2] concerns the target T1, hu-CD96 isoform 2 on CHO cells. The experiment can be described thus: FACS, Ab 0.0032 nM. The procedure:
as §1, §2

The target is the same in experiment [3]. The experiment can be described thus: FACS, % positive curve. The procedure:
as §1, §2

The target in experiment [4] is T2, cynomolgus monkey CD96 on cynomolgus monkey PBMCs (cynomolgus monkey, UniProt A0A2K5TWV6 22-569).
T2 construct: whole, on cells
T2 sequence: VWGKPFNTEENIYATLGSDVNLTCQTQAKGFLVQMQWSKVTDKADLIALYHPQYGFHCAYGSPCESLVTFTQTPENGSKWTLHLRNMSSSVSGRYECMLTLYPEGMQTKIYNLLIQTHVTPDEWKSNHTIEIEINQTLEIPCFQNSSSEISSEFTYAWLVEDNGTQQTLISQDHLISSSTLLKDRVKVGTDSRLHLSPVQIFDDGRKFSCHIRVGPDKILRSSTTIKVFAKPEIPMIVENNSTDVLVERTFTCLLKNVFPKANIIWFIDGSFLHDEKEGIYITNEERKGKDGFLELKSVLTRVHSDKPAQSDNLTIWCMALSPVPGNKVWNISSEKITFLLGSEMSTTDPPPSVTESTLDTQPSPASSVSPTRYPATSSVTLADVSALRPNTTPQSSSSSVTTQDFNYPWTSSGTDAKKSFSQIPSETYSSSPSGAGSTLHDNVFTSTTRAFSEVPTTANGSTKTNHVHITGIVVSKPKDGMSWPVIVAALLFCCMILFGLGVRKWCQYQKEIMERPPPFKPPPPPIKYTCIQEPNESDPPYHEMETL
Kind of experiment: FACS, Ab 80 nM. The procedure: The ability of the anti-CD96 antibodies to bind primary immune cells from human and cynomolgus monkey with lower level of receptor expression was measured. Human PBMCs (StemCell Technologies, catalog #70025) and cynomolgus monkey PBMCs (Primate Biologicals, catalog #CM-MC) were incubated with human TruStain FcX (Biolegend, catalog #422302) for 10 minutes at 4° C., followed by incubation with an anti-CD96 antibody for 20 minutes at 4° C. Cells were washed and the anti-CD96 antibody binding was detected by incubation with anti-mouse IgG-PE (Thermo Fisher, catalog #M30204) or anti-human IgG (Fab) 2-PE (Thermo Fisher, catalog #H10104) for 20 minutes at 4° C. Cells were washed, and immune subtypes were labeled with anti-CD3 (BD, catalog #557705), anti-CD4 (Biolegend, catalog #317424) and anti-CD8 (BD, catalog #557760) for 20 minutes at 4° C. Cell binding was analyzed by flow cytometry with a CytoFLEX (Beckman Coulter). Binding curves were calculated as a percentage of cells positive for bound antibody in the cell type of interest.

Experiment [5] has as its target T1, hu-CD96 isoform 2 on CHO cells. Kind of experiment: FACS, CD155-Fc-FLAG 10 nM, Ab 4 nM. The procedure:
(§3) CHO cells stably expressing isoform 2 of hu-CD96 (Origene, catalog #RC221005) were incubated with anti-CD96 antibodies for 20 minutes at 4° C. The cells were washed, and then incubated with 10 nM human CD155-Fc-FLAG for 30 minutes at 4° C. Cells were washed, and then human CD155-Fc-FLAG binding was detected by incubation with anti-FLAG-APC (Columbia Biosciences, catalog #D3-1718-1MG) for 20 minutes at 4° C. Cell binding was analyzed by flow cytometry with a CytoFLEX (Beckman Coulter). CD155 binding is represented as median fluorescence intensity (MedFI).
(§4) As shown in Table 20 (below), the anti-CD96 antibodies, mAb1.v7.NGS8, mAb1.v7.NGS9, mAb1.v7.NGS10, mAb1.v7.NGS11, and h10G1 inhibited soluble hu-CD155 binding to CD96-expressing CHO cells dose-dependently and potently. The antibody NK92.39 (Fuchs et al., 2004; Biolegend catalog #338405) inhibited receptor binding similarly.

Experiment [6] has the same target. Kind of experiment: FACS, CD155-Fc-FLAG 10 nM, Ab 20 nM. The procedure: as §3, §4
The target is the same in experiment [7]. Kind of experiment: FACS, CD155-Fc-FLAG 10 nM, Ab 100 nM. The procedure:
as §3, §4

For experiment [8] the target is unchanged. The experiment can be described thus: FACS, CD155-Fc-FLAG 10 nM, Ab 0.032 nM. The procedure: as §3, §4

Positions count from the first letter of the chain named. Names and notes keep the numbering of the source.

B1: 10G1 (clone 10G1.3G8), purified hybridoma antibody (antibody, V domains shown)
VH: QIQLVQSGPELKKPGETVKISCKASGYPFTTYGMSWVKQAPGKGLKWMGWINTDSGVPTYADDFKGRFAFSLETSANTAYLQINSLKNEDAATYFCARNIYYGWGNFDYWGQGTILTVSS
VL: DILMTQSPTTLSVTPGETVSLSCRASQDIYRNLHWYQQKSQGTPRLLIKHASDSISGIPSRFTGSGSGTDFTLSINSVKPEDEGIYYCLQGYSMPYTFGGGTKLEIK
notes: murine hybridoma IgG
For the molecule B1, the results for the “% positive” value in experiment [1] and in experiment [2] were 34.9% and 0.1%, respectively. The molecule further returned an EC50 in experiment [3] of 0.23 nM.

B2: h10G1 IgG (humanized 10G1) (antibody, V domains shown)
VH: EIQLVQSGSELKKPGASVKVSCKASGYPFTTYGMSWVRQAPGQGLEWMGWINTDSGVPTYADDFKGRFVFSLDTSVSTAYLQISSLKAEDTAVYFCARNIYYGWGNFDYWGQGTLVTVSS
VL: EIVMTQSPDFQSVTPKEKVTITCRASQDIYRNLHWYQQKPDQTPKLLIKHASDSISGIPSRFSGSGSGTDFTLTINSLEAEDAAAYYCLQGYSMPYTFGGGTKVEIKG
notes: human IgG1 N297G
In the case of B2, the “% positive” value in experiment [4] was found to be 68.3%. Besides, the “CD155-Fc binding (MedFI)” value in experiment [5] stood at 4860 MedFI; in experiment [6], 4860 MedFI; in experiment [7], 5120 MedFI; in experiment [8] it was 52100 MedFI.

B3: mAb1.v7 IgG (humanized 12F8) (antibody, V domains shown)
VH: EVQLVQSGAEVKKPGASVKVSCKASGFTFTNNWMHWVRQAPGQGLEWIGMIHPNSGITNINEKFKNRVTMTTDTSTSTAYMELRSLRSEDTAVYYCRSDGTYEGYFDYWGQGTLVTVSS
VL: DIQLTQSPSSLSASVGDRVTITCKASQNVGTAIVWYQQKPGKAPKVLIYSASTRYTGVPSRFSGSGSGTDFTLTISSLQPEDFATYYCQQYSSSPLTFGQGTKVEIKG
notes: human IgG1 N297G
For the molecule B3, the “% positive” value in experiment [1] came out at 42.4%; in experiment [2] it was 0.5%. In experiment [3], this molecule registered an EC50 of 0.52 nM.

B4: mAb1.v7.NGS11 IgG (antibody, V domains shown)
VH: B3 VH with W33F, M50F, P53A, T101V
VL: B3 VL
notes: human IgG1 N297G
For B4, the “% positive” value in experiment [4] was found to be 81.9%. Also, the “CD155-Fc binding (MedFI)” value is 4860 MedFI in experiment [5], 4460 MedFI in experiment [6], 4210 MedFI in experiment [7] and 57700 MedFI in experiment [8].

B5: mAb1.v7.NGS10 IgG (antibody, V domains shown)
VH: B3 VH with W33F, M50F, P53A, T101I
VL: B3 VL
notes: human IgG1 N297G
Take B5: the “% positive” value in experiment [4] turned out to be 75.2%. Moreover, the “CD155-Fc binding (MedFI)” value in experiment [5] was 4940 MedFI; in experiment [6] it was 4940 MedFI; in experiment [7], 5110 MedFI; in experiment [8], 57700 MedFI.

B6: mAb1.v7.NGS9 IgG (antibody, V domains shown)
VH: B3 VH with W33F, P53A, T101V
VL: B3 VL
notes: human IgG1 N297G
Regarding B6, the “% positive” value in experiment [4] stood at 73.8%. For the same molecule, the “CD155-Fc binding (MedFI)” value in experiment [5] came out at 6100 MedFI; in experiment [6] it was 4260 MedFI; in experiment [7], 4140 MedFI; in experiment [8], 53000 MedFI.

B7: 7E5, purified hybridoma antibody (antibody, V domains shown)
VH: QVQLKESGPGLVAPSQSLSIICTVSGFSLTNYGIHWIRQPPGKGLEWLGIIWAGGSTNYNSALMSRLTISKDNSKSQVFLKMNSLQTNDTAIYYCARVSMMGFAYWGQGTLVTVSA
VL: QAVVTQESALTTSPGETVTLTCRSSTGAVTTSNYANWVQEKPDHLFTGLIGGTNNRAPGVPARFSGSLIGDKAALTITGAQTEDEAIYFCSLWYGSHWVFGGGTKLTVL
notes: murine hybridoma IgG
With B7, the “% positive” value stood at 53.3% in experiment [1] and 0.1% in experiment [2]. In experiment [3], this molecule had a half-maximal effective concentration (EC50) of 0.11 nM.

B8: 9H4, purified hybridoma antibody (antibody, V domains shown)
VH: EVQLLETGGGLVKSGGSLKLSCAASGFTFSDYYMYWVRQTPEKRLEWVAAISDDGTYTYYPDSVKGRFTISRDNANNYLYLQMSSLKSEDTAIYYCAKAGSYDYFDVWGAGTTVTVSS
VL: DIVLTQSPASLAVSLGQRAIISCKASQSVTFADTGLMHWYQQKPGQQPKLLIYRASNLEVGVPTRFSGSGSGTDFTLNIHPVEEEDVATYYCQQSREYPWTFGGGTKLEIK
notes: murine hybridoma IgG
For B8, the “% positive” value was determined as 44.2% in experiment [1] and 0.3% in experiment [2]. For the same molecule, in experiment [3], it took 0.38 nM to reach a half-maximal effect (EC50).
